According to patent US20120184020A1, “ENGINEERED MICROORGANISMS WITH ENHANCED FERMENTATION ACTIVITY” (Verdezyne, Inc., priority 2009, published 2012):
Values joined by “and” are separate entries in the source; they are usually repeats but may differ in a detail not shown here. Equal values may be shown once.

B1: Ruminococcus xylose isomerase: native xylose isomerase from Ruminococcus flavefaciens strain 17, SEQ ID NO: 31 (protein, listed as Ruminococcus flavefaciens)
chain: MEFFSNIGKIQYQGPKSTDPLSFKYYNPEEVINGKTMREHLKFALSWWHTMGGDGTDMFGCGTTDKTWGQSDPAARAKAKVDAAFEIMDKLSIDYYCFHDRDLSPEYGSLKATNDQLDIVTDYIKEKQGDKFKCLWGTAKCFDHPRFMHGAGTSPSADVFAFSAAQIKKALESTVKLGGNGYVFWGGREGYETLLNTNMGLELDNMARLMKMAVEYGRSIGFKGDFYIEPKPKEPTKHQYDFDTATVLGFLRKYGLDKDFKMNIEANHATLAQHTFQHELRVARDNGVFGSIDANQGDVLLGWDTDQFPTNIYDTTMCMYEVIKAGGFTNGGLNFDAKARRGSFTPEDIFYSYIAGMDAFALGFRAALKLIEDGRIDKFVADRYASWNTGIGADIIAGKADFASLEKYALEKGEVTASLSSGRQEMLESIVNNVLFSL
B2: PAO1 EDD protein: phosphogluconate dehydratase (edd) of Pseudomonas aeruginosa PAO1, SEQ ID NO: 70 (protein, listed as Pseudomonas aeruginosa)
chain: MHPRVLEVTRRIQARSAATRQRYLEMVRAAASKGPHRGTLPCGNLAHGVAACGESDKQTLRLMNQANVAIVSAYNDMLSAHQPFERFPGLIKQALHEIGSVGQFAGGVPAMCDGVTQGEPGMELSLASRDVIAMSTAIALSHNMFDAALCLGVCDKIVPGLLIGSLRFGHLPTVFVPAGPMPTGISNKEKAAVRQLFAEGKATREELLASEMASYHAPGTCTFYGTANTNQLLVEVMGLHLPGASFVNPNTPLRDELTREAARQASRLTPENGNYVPMAEIVDEKAIVNSVVALLATGGSTNHTLHLLAIAQAAGIQLTWQDMSELSHVVPTLARIYPNGQADINHFQAAGGMSFLIRQLLDGGLLHEDVQTVAGPGLRRYTREPFLEDGRLVWREGPERSLDEAILRPLDKPFSAEGGLRLMEGNLGRGVMKVSAVAPEHQVVEAPVRIFHDQASLAAAFKAGELERDLVAVVRFQGPRANGMPELHKLTPFLGVLQDRGFKVALVTDGRMSGASGKVPAAIHVSPEAIAGGPLARLRDGDRVRVDGVNGELRVLVDDAEWQARSLEPAPQDGNLGCGRELFAFMRNAMSSAEEGACSFTESLNGWR
B3: E. coli EDA protein: 2-keto-3-deoxygluconate-6-phosphate aldolase (eda) isolated from E. coli genomic DNA (protein, UniProt P0A955 1-213, looked up)
KHG/KDPG aldolase: MKNWKTSAESILTTGPVVPVIVVKKLEHAVPMAKALVAGGVRVLEVTLRTECAVDAIRAIAKEVPEAIVGAGTVLNPQQLAEVTEAGAQFAISPGLTEPLLKAATEGTIPLIPGISTVSELMLGMDYGLKEFKFFPAEANGGVKALQAIAGPFSQVRFCPTGGISPANYRDYLALKSVLCIGGSWLVPADALEAGDYDRITKLAREAVEGAKL

Assays:
[1] = Xylose isomerase activity/kinetic assay on soluble whole cell extract (sorbitol dehydrogenase coupled, NADH, A340); format: biochemical; settings: xylose isomerase expressed in S. cerevisiae, total soluble crude extract; xylose concentrations between 40 and 500 nM (so in the source); Michaelis Mentin plots
Description: […] Louis, Mo.), and about 2 U sorbitol dehydrogenase (Roche) at about 30° C. […] A Beckman DU-800 was utilized with an Enzyme Mechanism software package (Beckman Coulter, Inc.), and the change in the A340 was monitored for 2-3 minutes.
[…] Louis, Mo.), and 2 U Sorbitol Dehydrogenase (SDH) (Roche, Indianapolis, Ind.) at about 30° C. […] A Beckman DU-800 spectrophotometer was utilized with an Enzyme Mechanism software package (Beckman Coulter, Inc, Brea, Calif.), and the change in the A340 was monitored for 2-3 minutes.
[…] Louis, Mo.), and 2 U sorbitol dehydrogenase (SDH) (Roche, Indianapolis, Ind.) at about 30° C. […] A Beckman DU-800 spectrophotometer was utilized with an Enzyme Mechanism software package (Beckman Coulter, Inc, Brea, Calif.), and the change in the A340 was monitored for 2-3 minutes.
Approximately 20 μg of soluble whole cell extract from each transformed cell line was prepared using Y-PER plus reagent as described above was incubated in a solution containing about 100 mM Tris, pH 7.5, 10 mM MgCl ? 2, 0.15 mM NADH (Sigma, St. Louis, Mo.), and 2 U Sorbitol Dehydrogenase (SDH) (Roche, Indianapolis, Ind.) at about 30° C. […] A Beckman DU-800 spectrophotometer was utilized with an Enzyme Mechanism software package (Beckman Coulter, Inc, Brea, Calif.), and the change in the A340 was monitored for 2-3 minutes.

[2] = test system: engineered yeast (S. cerevisiae); experiment: Heterologous xylose isomerase expression in yeast (active yes/no); format: cell-based; settings: xylose isomerase of donor organism expressed in engineered yeast (S. cerevisiae)
[3] = In vivo evaluation of xylose isomerase constructs in C5 strain: xylose fermentation, aerobic then anaerobic; format: cell-based, Saccharomyces cerevisiae; settings: harvest at 372 hours
Source text: The engineered strain was designed to include the following genetic modifications: the native Pho13 gene (alkaline phosphatase specific for p-nitrophenyl phosphate) was disrupted by inserting a construct containing the native TLK1 gene (Transketolase-1); the native aldose reductase gene (Gre3) was disrupted by inserting a construct containing the native high-affinity glucose transporter-7 gene (HXT7); the native glucose-repressible alcohol dehydrogenase II gene (adh2) was disrupted by inserting a construct containing the native xylulokinase gene (XYLK); and the native orotidine-5′ phosphate decarboxylase gene (ura3) was disrupted by inserting a construct containing the native transaldolase 1 gene […]. The resulting strain had the following genotype: pho13::TKL1, gre3::HXT7, adh2::XYLK, ura3::TAL1.
The C5 strain was transformed using standard protocols with either p426GPD (as a control) or the chimeric variants XI-R, XI-Rp5, XI-Rp10, or XI-Rp15. The transformed cells were grown on SC-glucose minus uracil initially and then passaged onto SC-xylose minus uracil. Cultures of each of the above constructs were made in SC-xylose minus uracil—and grown for one week. The cultures were grown aerobically at 30° C. with 250 rpm agitation, 1 vvm sparge of process air, 21% O2. The pH was controlled at about 5.0 with 1N NaOH. […] At 24 hours elapsed fermentation time the fermentation was switched to anaerobic conditions. […] Oxygen was purged with 100% N2 sparge at 1 vvm until percent O2 was below 1%. Aeration was then set at 0.25 vvm 100% N2.
The final sample also measured biomass by dry cell weight.

[4] = Industrial yeast strain BF903 evaluation: aerobic growth and xylose consumption in YP-xylose; format: cell-based, Saccharomyces cerevisiae; settings: commercial yeast strain BF903, YP-xylose with G418, aerobic, 30° C., 7 days
Description: A commercially available industrial diploid strain of Saccharomyces cerevisiae (strain BF903; “Stillspirits” triple distilled yeast, Brewcraft, Albany, New Zealand; available at Hydrobrew, Oceanside, Calif.) was obtained and was made competent for transformation using known yeast cell transformation procedures. […] Transformed yeast containing each construct were grown overnight aerobically in a 15 ml culture tube on YPD media containing 2% glucose. After about 24 hours, about 25 ml of YP media containing 2% glucose and 100 μg/ml G418 was seeded with the cells at an initial OD600 of 0.5 in a 250 ml Erlenmeyer flask and grown aerobically at 30° C. The cultures were then passaged once every 7 days into fresh media, also at an initial OD600 of 0.5.
Measurements were taken of the cell optical density (OD600) to assess cell density and plated onto YPD with 100 μg/ml G418 to ensure that the plasmid was stable. […] The strains were then grown overnight in YPD (with 100 μg/ml G418) and used to inoculate about 50 ml YP-xylose (with 100 μg/ml G418) into disposable 250 ml Erlenmeyer flasks with vented caps at an initial OD600 of about 1. The cultures were allowed to grow aerobically at 30° C. at 200 rpm for 7 days.

[5] = Industrial yeast strain: serum bottle (anaerobic) growth and ethanol production on xylose; format: cell-based, Saccharomyces cerevisiae; settings: sealed serum bottles, versus vector only control
Description: The serum bottles were sealed with a butyl rubber stopper to prevent air exchange. As a result, the cultures became anaerobic once the available oxygen in the serum bottle was utilized. In general, anaerobiosis (e.g., the onset of anaerobic conditions) occurred a few hours after the culture was inoculated. Xylose utilization, ethanol production and cell growth were measured every twenty four hours.

[6] = Anti-His western blot of EDD and EDA variants expressed in S. cerevisiae (soluble/insoluble fractions); parameters: species or system Saccharomyces cerevisiae; settings: C-terminal HIS tag; total crude extract and solubilized extract
Description: Transformation of the p426GPD plasmids containing an edd or an eda variant gene into yeast strain BY4742 was accomplished using the Zymo Research frozen-EZ yeast transformation II kit according to the manufacturer's protocol. The transformed BY4742 cells were selected by growth on a synthetic dextrose medium (SD) (0.67% yeast nitrogen base-2% dextrose) containing complete amino acids minus uracil (Krackeler Scientific Inc). Plates were incubated at about 30° C. for about 48 hours. Transformant colonies for each edd and eda variant were inoculated onto 5 ml of SD minus uracil medium and cells were grown at about 30° C. and shaken at about 250 rpm for about 24 hours. Cells were harvested by centrifugation at 1000×g for about 5 minutes, after which protein crude extract was prepared with Y-PER Plus (Thermo Scientific) according to the manufacturer's instructions. Whole cell extract protein concentrations were determined using the Coomassie Plus Protein Assay (Thermo Scientific) according to the manufacturer's directions. For each edd and eda variant His-tagged construct, about 10 μg of soluble and insoluble fractions were loaded on 4-12% NuPAGE Novex Bis-Tris protein gels (Invitrogen) and proteins were analyzed by western using anti-(His)6 (SEQ ID NO: 138) mouse monoclonal antibody (Abcam) and HRP-conjugated secondary antibody (Abcam). […]

[7] = EDA activity assay: S. cerevisiae EDA extracts with saturating E. coli EDD extract (LDH coupled, NADH); format: biochemical
Description: EDA genes isolated from a variety of sources were expressed in yeast and evaluated independently of EDA activity, to identify EDA activities suitable of inclusion in an engineered yeast strain. […] The activity of integrated EDAs in Thermosacc-Gold haploids, were also evaluated in this manner.
EDD extractions (adapted from Chemyan et al, Protein Science 16:2368-2377, 2007): • 1) Pellet cells in 50 ml conical tubes, 4° C., 3,000 rpm, 10 mins, discard supernatant. • 2) Resuspend in 2 ml degassed PDGH buffer (20 mM MES pH 6.5, 30 mM NaCl, 5 mM MnCl2, 0.5 mM FeCl2, 10 mM 2-mercaptoethanol, 10 mM cysteine, sparged with nitrogen gas). Move to hungate tube. • 3) Add 0.1% Triton X-100, 10 ng/ml DNase, 10 μg/ml PMSF, 10 μg/ml TAME (Na-(p-toluene sulfonyl)-L-arginine methyl ester), 100 μg/ml lysozyme. • 4) Sparge hungate tube with nitrogen gas, cap and seal. Incubate 2 hours at 37° C., swirl occasionally. • 5) Clarify by centrifugation in 2-ml tube, 4° C., 10 mins, 14,000 rpm. Keep supernatant. • 6) Treat with 150 mM pyruvate and 10 mM sodium cyanoborohydride (work in hood) to inactivate aldolase activity. Incubate 30 mins at room temperature. • 7) During incubation, pre-equilibrate PD-10 column from GE • a. Remove top cap, pour off storage buffer. • b. Cut off bottom tip, fit in 50 ml conical with adapter. • c. Pour 5 ml of 20 mM MES buffer, pH 6.5 (total of 5 times). Discard flow-through. • 8) Run sample through column, then add MES buffer to a total of 2.5 ml volume added. Discard flow-through. • 9) Run 3.5 ml 20 mM MES pH 6.5 buffer to elute protein. Discard column in appropriate waste receptacle. • 10) Perform Bradford assay (1:10 or 1:20 dilution).
• 1) Spin down in 50 ml conicals, 4° C., 3,400 rpm, 5 mins. […]
Each reaction contains 50 mM Tris-HCl, pH 7, 10 mM MgCl2, 0.15 mM NADH, 15 μg LDH, saturating amounts of EDD determined empirically (usually −100 μg), 1-50 μg EDA (depending on level of activity), and 1 mM 6-phosphogluconate. Reactions are started by the addition of 6-phosphogluconate and monitored for 5 mins at 30° C.

Molecule	Specific Activity [1] [µmol/min/mg]	Active? (yes/no) [2]	Glucose [3] [g/L]	Ethanol ([3]; listed as XI-R)	Xylose ([3]; listed as XI-R)	xylose consumption (FIG. 11) [4]	cell density (FIG. 12) ([5]; YP plus xylose)	ethanol production (FIG. 12) ([5]; xylose as a carbon source)	expression and solubility in S. cerevisiae (western, FIGS. 13A and 13B) [6]	EDA activity relative to EDA from P. aeruginosa ([7]; E. coli EDA slope outside the linear range, underestimated)	EDA activity compared (in words) ([7]; EDAs expressed in S. cerevisiae, saturating E. coli EDD extract)
B1	0.9605	Yes	0	15.65 g/L and 15.5 g/L	3.14 g/L and 3.85 g/L	more efficient at consuming xylose than the strain carrying the vector control only	higher cell density	more ethanol	–	–	–
B2	–	–	–	–	–	–	–	–	expressed and soluble	–	–
B3	–	–	–	–	–	–	–	–	expressed and soluble	approximately 16 fold	most active
